No end group written: not given here.
T1: human melanocortin-1 (MC1) receptor (human)
T1 chain: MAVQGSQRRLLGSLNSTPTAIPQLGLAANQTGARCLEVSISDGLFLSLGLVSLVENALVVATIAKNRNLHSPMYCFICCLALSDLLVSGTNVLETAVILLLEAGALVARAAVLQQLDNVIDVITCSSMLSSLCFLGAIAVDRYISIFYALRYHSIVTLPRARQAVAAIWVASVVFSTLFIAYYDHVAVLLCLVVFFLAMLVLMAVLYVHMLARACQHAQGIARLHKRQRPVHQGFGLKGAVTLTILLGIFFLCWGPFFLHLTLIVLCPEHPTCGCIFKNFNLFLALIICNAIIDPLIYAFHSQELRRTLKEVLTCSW

T2: mouse melanocortin-5 (mMC5) receptor (mouse)
T2 chain: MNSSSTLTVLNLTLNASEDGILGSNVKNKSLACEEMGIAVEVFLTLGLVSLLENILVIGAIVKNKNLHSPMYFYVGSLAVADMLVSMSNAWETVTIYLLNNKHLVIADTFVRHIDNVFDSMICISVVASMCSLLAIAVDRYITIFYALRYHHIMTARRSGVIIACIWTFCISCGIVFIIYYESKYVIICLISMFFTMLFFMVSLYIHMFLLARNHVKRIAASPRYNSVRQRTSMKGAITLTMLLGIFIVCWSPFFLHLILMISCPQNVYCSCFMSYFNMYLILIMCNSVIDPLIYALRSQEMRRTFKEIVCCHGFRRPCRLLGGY


Assays:
[1] = molecular target: T1, human melanocortin-1 (MC1) receptor; assay: cell-based or functional assay
[2] = molecular target: human melanocortin-3 (MC3) receptor (human); assay: cell-based or functional assay
human melanocortin-3 (MC3) receptor (human), sequence (chain, as listed by the source limits assumed): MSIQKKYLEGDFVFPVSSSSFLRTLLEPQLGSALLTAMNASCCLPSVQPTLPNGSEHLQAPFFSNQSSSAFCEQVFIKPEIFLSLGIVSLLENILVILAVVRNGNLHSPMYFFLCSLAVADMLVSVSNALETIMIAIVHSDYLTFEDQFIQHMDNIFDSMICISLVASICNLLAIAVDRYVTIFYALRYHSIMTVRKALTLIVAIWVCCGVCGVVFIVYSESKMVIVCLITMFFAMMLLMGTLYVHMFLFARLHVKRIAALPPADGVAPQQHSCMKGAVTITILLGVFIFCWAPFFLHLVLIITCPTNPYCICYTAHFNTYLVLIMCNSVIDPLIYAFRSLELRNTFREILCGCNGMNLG

[3] = molecular target: T2, mouse melanocortin-5 (mMC5) receptor; assay: competition with radio-iodinated NDP-MSH on L-cells transfected with the mMC5 receptor
[4] = molecular target: human melanocortin-4 (MC4) receptor (human); assay: cell-based or functional assay
human melanocortin-4 (MC4) receptor (human), sequence (chain, as listed by the source): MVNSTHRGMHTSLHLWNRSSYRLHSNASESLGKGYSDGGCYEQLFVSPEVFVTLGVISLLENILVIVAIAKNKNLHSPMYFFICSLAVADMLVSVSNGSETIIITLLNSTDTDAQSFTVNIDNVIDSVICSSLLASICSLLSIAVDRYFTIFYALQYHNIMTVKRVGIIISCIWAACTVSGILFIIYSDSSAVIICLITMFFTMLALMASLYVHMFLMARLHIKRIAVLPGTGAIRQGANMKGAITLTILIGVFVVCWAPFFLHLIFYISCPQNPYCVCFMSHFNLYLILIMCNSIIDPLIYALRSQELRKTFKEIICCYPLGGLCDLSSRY

Row | Binder | ED50 of cAMP generation in transfected L-cells [1] [nM] | ED50 of cAMP generation in transfected L-cells [2] [nM] | fold greater binding affinity than ACTH (1-39) [3] [fold] | EC50 of cAMP increase in transfected L-cells [4] [nM] | binding result [3]
1 | Ac-SYSMEHFRWGKPV (ends and bridges not checked) [α-MSH] | ~1 | ~1 |  |  | 
2 | SYSMEHFRWGKPV [ACTH (1-13)] |  |  | ~10 |  | 
3 | SYSMEHFRWGKPVGKKRRPVKVYPNGAEDESAEAFPLEF [human ACTH (1-39)] | ~1 | ~1 |  | 1 | binds
